In article PMC3817407 one finds fold repression data, which are given here for 14 molecules.

T1: ECF04_1609
T1 chain: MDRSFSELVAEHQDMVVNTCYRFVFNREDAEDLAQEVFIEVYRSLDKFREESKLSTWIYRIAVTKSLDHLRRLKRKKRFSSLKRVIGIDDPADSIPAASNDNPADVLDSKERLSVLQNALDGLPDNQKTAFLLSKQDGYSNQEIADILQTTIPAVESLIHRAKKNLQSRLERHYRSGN

T2: ECF02_2817
T2 chain: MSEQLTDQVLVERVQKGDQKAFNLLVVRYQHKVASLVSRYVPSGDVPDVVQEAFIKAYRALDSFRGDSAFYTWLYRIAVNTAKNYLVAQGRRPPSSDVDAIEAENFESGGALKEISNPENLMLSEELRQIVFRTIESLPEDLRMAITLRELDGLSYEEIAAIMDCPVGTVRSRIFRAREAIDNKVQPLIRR

T3: ECF25_1645
T3 chain: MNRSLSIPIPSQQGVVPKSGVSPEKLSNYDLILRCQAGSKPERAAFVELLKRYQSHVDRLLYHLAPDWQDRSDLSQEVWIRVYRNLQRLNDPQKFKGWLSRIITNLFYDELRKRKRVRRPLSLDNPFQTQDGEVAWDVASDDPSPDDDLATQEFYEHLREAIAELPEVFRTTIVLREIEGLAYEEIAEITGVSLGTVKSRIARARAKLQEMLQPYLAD

T4: ECF33_375
T4 chain: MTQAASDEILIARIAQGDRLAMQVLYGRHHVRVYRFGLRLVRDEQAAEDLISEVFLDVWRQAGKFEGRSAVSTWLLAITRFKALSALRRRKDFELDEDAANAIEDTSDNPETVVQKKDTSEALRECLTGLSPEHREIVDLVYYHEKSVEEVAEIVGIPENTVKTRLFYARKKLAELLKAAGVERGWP

T5: ECF15_524
T5 chain: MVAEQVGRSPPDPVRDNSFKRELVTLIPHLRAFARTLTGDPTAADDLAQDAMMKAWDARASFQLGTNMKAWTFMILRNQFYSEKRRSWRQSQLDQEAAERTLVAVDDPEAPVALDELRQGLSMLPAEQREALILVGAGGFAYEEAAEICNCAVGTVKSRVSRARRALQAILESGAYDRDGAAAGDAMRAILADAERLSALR

B1: AS04_1609 (protein)
chain: MNRTTEQRNAEVMKTIGLLDQMPRVEVDHLFRVRLMQRIEAMEVKKTSWSALPGGAFNPRLAFMALLLMLNIASALMLFMHGTPQATGSSGAIAESLTEDYGGPALSYYDDQTTIDR
B2: AS14_1324 (protein)
chain: MSGSRPEPEGHLAEQHLGDRLSALVDGELGHDARERVLAHVATCPKCKAEVDAQRRLKNVFAEAAPPAPSESFLARLQGLPGGGDSDGGGSPFSGLPGGFGASAASGVFGPRRDERFEFDYVPAGSHTPVLPSATSGRGFRIHEVGRHESDRSASRGLRFAFAAAGAVSLAAIALGGVTLGTPDTTTEARGSGSGSNVTPLRTPGSAAATGSESQRRRTAGPLLGQGQRALGDLPVASTTASAPLLPGMPAPAGGDARQQAVRALTTPVTAGAAAMSPLIRPLEAVPPLSLSSWSAAPEVRPPGLLAAPDPAPSPYPAASPAASSSPLR
B3: AS20_992 (protein)
chain: MTPERFVHLADAYGADLQRWPSAERAAAQALLDCGDAQAVAALRQAHWLDSQLDRYQVPAPSPALAQRIIAAAQQPGAPFWSRYAGWLASLGWVGVGLTGVAAGMLAVALSLPLSTSAEALPSVFDQSDAEFVLSINAEEAEQ
B4: AS16_973 (protein)
chain: MKTDDLIALLAAGEGPVPRHAVGRRMAVAALGGLTAALLLTITLYGVRSDITEVAQTPLFWGKVAFPTSLALIGLWLTSRLARPGGKGAAGWKMLGLPLLLVWCGAAVSIAGAPVDARADLLFGRTWRTCALNIALLSVPAFVTVFWALKGLAPTRLRLAGAAGGLLAGSSATVAYCLHCPEMGVPFWGVWYVLGMLVPTVLGAWWGPRMLRW
B5: AS01_3473 (protein)
chain: MSNYDNAELLALWLEGKLTPKQRDEFEQRCIQDSQFAEQVDAAAMVKIGADDYSSSEVPQWNKAATFEPQQANNSGSWLSGVSLVTSALAIVLVLTGTQVTTSEGELRIRFGSGQSEQALVKLVDSKLDAFKQNQQDAFTLYAQTLQQQQSESASQLTNYLLSSSRKERREDFAELIKFVNQQRSDDQLFYARQLNQLQQDVYHDATGVALESIQQ
B6: AS03_1244 (protein)
chain: MKQFDPDVNIRPKEDSIRHYSVPDDYFASFTDKLMAQIPAVKEENTVVVPSVALWPKLRPLLYLAASFLLMIGMFKAFSLFGVGSDTGRTTSTSAGLVALDHGDTRWSEDTDYRDFLHDNCAETVSDEWVLTDFSE
B7: AS03_1198 (protein)
chain: MDKDFDFDNIGKRTPYRTPDNFFEETQRKILERTVDEQRKKRRLKRIIPTVIAVAAVLAGILFTPSLRYMNTDTPSASNILAVDKNNVTTDPVDKWIKELSDEELEELVSFSENDIFLN
B8: AS02_915 (protein)
chain: MEKTGQEWVSASVDGETDRQTLAELAADTDSHAKWQRYHLMGDAMRDELPQAMPLDLSARIAAALEDEPTILAPKVEREATQAPSRAVVVPFMRQLGQYGIAAAVALMAVVGVQNYQSTQDDAPLPVLNTRPLVGTATPVSLQTGPVANQNQGNANDQLLEQRRRINAYLQDHMLQQRLNTGAVVDDNSEVTPIPVNR
B9: AS11_987 (protein)
chain: MNKHPDNNLLEAYASGSIDAVSGLVVATHLETCSKCRAYVNQVEASQANTVSESPSEYSPEFDDMLNDIINAEPVNDNVVIQDTAFVNVAGKSFELPKTLVRFSDLVGSWRSYGGKVFSAQIDLGEDARVSLMYIGENVQIPQHTHRGLESTLVLHGGFSDEDGQYEEGDLMVRDASVKHSPFTQEGEDCLCLTVLTEPMIFTQGVARIFNLFGKGLYP
B10: AS22_4450 (protein)
chain: MELDDMKHAWQTLEQRLDQQAAQTGQLLGVVHEETVRSSLRPLWVAQTAQLLCALALAIVSARSWIPHTDQPVAVIGGVLLQAWCMALAISAMVQLQLLTQFNVAGPLLRTQHALARLRRWRTRVAPWLGVAFWVLWIAVADALWRALTGQTLPTDWLVLNLLVGVAGGIGTWLGFRRLQRAQHPWLERIDRAHAGTGVIRAERMLEEIARFQRD
B11: AS15_436 (protein)
chain: MAQSTEPKASPQEATAKGGDNTKGKSRKELQQQIDENLRRVYEEALVQEVPDRFAMLLDQLRQKGTGK
B12: AS22_1147 (protein)
chain: MELDDIAVAWRSLEQRLDQHAALAGQVLGDLRSHAARAHLRPLWLSQSAQLLCAIALSGLVAHSWLAFPEQAAAIVGGVLLQIWCVALAASAARQLWLLSQLDFARPLLQTQRALAQLRRWRTRVAPWLGVAFWVLWVAVADAAWRALTGRSLPYAWLLCNLLVGVLGGIGTWLGYRRLQRSGHPWLERLDTVHAGRSVARTETLLEQIARFQRE
B13: AS15_524 (protein)
chain: MNFGVEDMIEHVPMEDKRKGAAALDEARLRQQAIGVKLRQMFDEVVNEPVPDEFLAILRKAERPAGGE
B14: AS16_3622 (protein)
chain: MMKTDELISLLATAEGPVDRHALARRLGLALLAGLLGALLLTVALYGVRSDLAEVARTPLFWAKVALPTSLALLGLWLTQRLARPGVRGGALWGLLGVPLLLVWLGAAISLFGAPPEARADLIFGRTWRTCALNITLLSTPVFIAVFWALRGLAPTRLRQAGAAGGLLAGSTATLVYCLHCPEMGVPFWGLWYLLGMLVPTLLGAVLGPRLLRW

The first assay concerns the target ECF27_1331.
As for B1, the fold repression was determined as 2.31.
Take B2: the fold repression turned out to be 8.27.
B3: the fold repression turned out to be 2.11.
For the molecule B4, the fold repression was 0.929.
With B5, the fold repression was determined as 3.09.
For B6, the fold repression worked out at 2.14.
As to B7, the fold repression is 1.42.
Same read-out and setting: then B8, with 4.27.
Take B9: the fold repression was determined as 3.06.
With B10, the fold repression stood at 1.37.
Turning to B11, the fold repression stood at 4.82.
With B12, the fold repression was found to be 3.07.
Still for that read-out and setting: then B13, with 11.5; and B14, with 3.55.

A further assay deals with T1, ECF04_1609.
Consider B1, for which the fold repression is 7.83.
Consider B2, for which the fold repression was determined as 4.65.
Same read-out and setting: then B3, with 1.95; and B4, with 0.632.
The same measure, in the same setting: next, B5: 1.67.
On the same count and under the same terms, then B6, with 2.42; and B7, with 1.54; and B8, with 3.74.
B9: the fold repression came to 2.66.
With B10, the fold repression was determined as 1.43.
The same measure, in the same setting: then B11, with 5.41.
For B12, the fold repression worked out at 3.52.
Take B13: the fold repression was 6.89.
For B14, the fold repression worked out at 1.95.

In another assay the target is T2, ECF02_2817.
In the case of B1, the fold repression was 2.53.
With B2, the fold repression turned out to be 2.97.
Same read-out and setting: next, B3: 1.74.
On to B4, for which the fold repression amounted to 0.448.
On the same count and under the same terms, next, B5: 2.1.
On the same count and under the same terms, next, B6: 1.96.
As for B7, the fold repression was 1.85.
Regarding B8, the fold repression came out at 5.22.
Still for that read-out and setting: next, B9: 3.07; B10: 1.98.
Still for that read-out and setting: then B11, with 1.58; and B12, with 2.38.
Still for that read-out and setting: then B13, with 2.65.
On to B14, for which the fold repression turned out to be 1.37.

In another assay the target is T3, ECF25_1645.
Take B1: the fold repression came to 1.06.
Still for that read-out and setting: then B2, with 3.18.
Still for that read-out and setting: next, B3: 1.3; B4: 0.538; B5: 0.81.
With B6, the fold repression was found to be 1.37.
As for B7, the fold repression worked out at 0.816.
Same read-out and setting: then B8, with 1.99.
Same read-out and setting: then B9, with 2.46; and B10, with 1.42; and B11, with 1.87.
On the same count and under the same terms, next, B12: 2.27.
Consider B13, for which the fold repression amounted to 3.69.
Same read-out and setting: next, B14: 1.53.

For the next assay, the target named is T4, ECF33_375.
Turning to B1, the fold repression came out at 3.16.
The same measure, in the same setting: next, B2: 3.42; B3: 1.04; B4: 0.373.
B5: the fold repression was 1.13.
As to B6, the fold repression amounted to 1.51.
Same read-out and setting: next, B7: 0.909.
Consider B8, for which the fold repression was 2.44.
For B9, the fold repression stood at 1.99.
On the same count and under the same terms, next, B10: 1.4; B11: 2.28.
As for B12, the fold repression amounted to 1.26.
Turning to B13, the fold repression is 4.38.
B14: the fold repression was determined as 1.17.

Another assay concerns the target T5, ECF15_524.
Turning to B1, the fold repression was 2.88.
B2: the fold repression was 5.32.
For the molecule B3, the fold repression stood at 1.58.
On the same count and under the same terms, next, B4: 0.668; B5: 1.61.
Same read-out and setting: next, B6: 2.14; B7: 1.49; B8: 2.55.
Take B9: the fold repression was determined as 3.35.
On the same count and under the same terms, then B10, with 1.53; and B11, with 33.1; and B12, with 2.65.
Consider B13, for which the fold repression was 31.4.
The same measure, in the same setting: then B14, with 3.36.
